Reference: patent publication US20250019440A1 (Zymeworks, published 2025)

What was measured:
Human CD3 (recombinant) = Human CD3 (recombinant) (human); assay: SPR, CD3 amine-coupled, variant as analyte, 1:1 model
Human PD-L1 = biological target: T1, Human PD-L1 (human, UniProt Q9NZQ7 19-239); assay: SPR, PD-L1 amine-coupled, variant as analyte, 1:1 model
T1 construct: Amine-coupled to a CM5 chip for SPR; also called recombinant human PD-L1
T1 sequence (Q9NZQ7 19-239 limits assumed): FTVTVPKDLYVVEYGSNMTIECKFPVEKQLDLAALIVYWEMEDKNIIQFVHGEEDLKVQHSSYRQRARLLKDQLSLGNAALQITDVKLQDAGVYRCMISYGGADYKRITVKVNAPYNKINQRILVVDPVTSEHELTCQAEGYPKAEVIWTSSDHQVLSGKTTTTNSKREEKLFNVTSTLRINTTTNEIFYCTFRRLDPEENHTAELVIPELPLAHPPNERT

Chain of Human CD3 (recombinant) (human) (chain, as listed by the source): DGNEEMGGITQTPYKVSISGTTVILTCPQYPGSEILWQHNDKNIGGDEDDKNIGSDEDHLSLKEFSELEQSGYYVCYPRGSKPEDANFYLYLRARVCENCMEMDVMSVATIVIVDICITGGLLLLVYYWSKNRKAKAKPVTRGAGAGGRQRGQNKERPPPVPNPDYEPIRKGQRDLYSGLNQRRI

Row | Kd (Human CD3 (recombinant)) [nM] | Kd (Human PD-L1) [nM] | Binder
1 | 30 | 510 | v38740 (other, CD3 Fab x Cldn18.2 scFv Fc, wildtype (WT) PD-1 attached to HC1 (C-term)) heavy 1: EVQLVESGGGLVQPGGSLRLSCAASGVTFNYYGMSWIRQAPGKGLEWVASITSSGGRIYYPDSVKGRFTISRENTQKTLYLQMNSLRAEDTAVYYCTLDGRDGWVAYWGQGTLVTVSSASTKGPSVFPLAPSSKSTSGGTAALGCLVKDYFPEPVTVSWNSGALTSGVHTFPAVLQSSGLYSLSSVVTVPSSSLGTQTYICNVNHKPSNTKVDKKVEPKSCDKTHTCPPCPAPEAAGGPSVFLFPPKPKDTLMISRTPEVTCVVVSVSHEDPEVKFNWYVDGVEVHNAKTKPREEQYNSTYRVVSVLTVLHQDWLNGKEYKCKVSNKALPAPIEKTISKAKGQPREPQVYVYPPSRDELTKNQVSLTCLVKGFYPSDIAVEWESNGQPENNYKTTPPVLDSDGSFALVSKLTVDKSRWQQGNVFSCSVMHEALHNHYTQKSLSLSPGGGGGSGDRPWNPPTFSPALLVVTEGDNATFTCSFSNTSESFVLNWYRMSPSNQTDKLAAFPEDRSQPGQDARFRVTQLPNGRDFHMSVVRARRNDSGTYLCGAISLAPKAQIKESLRAELRVTE light: NFMLTQPHSVSESPGKTVTISCKRNTGNIGSNYVNWYQQHEGSSPTTIIYRNDKRPDGVSDRFSGSIDRSSKSASLTISNLKTEDEADYFCQSYSSGFIFGGGTKLTVLGQPKAAPSVTLFPPSSEELQANKATLVCLISDFYPGAVTVAWKADSSPVKAGVETTTPSKQSNNKYAASSYLSLTPEQWKSHRSYSCQVTHEGSTVEKTVAPTECS heavy 2: QVQLVESGGGLVQPGGSLRLSCSVSGIDLSSNPMIWVRQAPGKGLQYIGIIDTDGSTYYADWAKGRFTISKDSTTVYLQINSPRAEDTAVYYCARRLHGSSNGYYDDLWGQGTLVTVSSGGGGSGGGGSGGGGSGGGGSDGQMTQSPSSVSASVGDRVTITCQASQSIYSYLSWYQQKPGQRPKLLIYKASTLASGVPSRFSGSGSGTDFTLTISSVQPEDFATYYCQQGYTVTNVDKNTFGGGTKVEIKAAEPKSSDKTHTCPPCPAPEAAGGPSVFLFPPKPKDTLMISRTPEVTCVVVSVSHEDPEVKFNWYVDGVEVHNAKTKPREEQYNSTYRVVSVLTVLHQDWLNGKEYKCKVSNKALPAPIEKTISKAKGQPREPQVYVLPPSRDELTKNQVSLLCLVKGFYPSDIAVEWESNGQPENNYLTWPPVLDSDGSFFLYSKLTVDKSRWQQGNVFSCSVMHEALHNHYTQKSLSLSPG
2 | 190 | 1900 | v38744 (other, CD3 Fab with C-term Cldn18.2 scFv x Cldn18.2 scFv Fc with wildtype (WT) PD-1 attached to CD3 LC (N-term)) heavy 1: EVQLVESGGGLVQPGGSLRLSCAASGVTFNYYGMSWIRQAPGKGLEWVASITSSGGRIYYPDSVKGRFTISRENTQKTLYLQMNSLRAEDTAVYYCTLDGRDGWVAYWGQGTLVTVSSASTKGPSVFPLAPSSKSTSGGTAALGCLVKDYFPEPVTVSWNSGALTSGVHTFPAVLQSSGLYSLSSVVTVPSSSLGTQTYICNVNHKPSNTKVDKKVEPKSCDKTHTCPPCPAPEAAGGPSVFLFPPKPKDTLMISRTPEVTCVVVSVSHEDPEVKFNWYVDGVEVHNAKTKPREEQYNSTYRVVSVLTVLHQDWLNGKEYKCKVSNKALPAPIEKTISKAKGQPREPQVYVYPPSRDELTKNQVSLTCLVKGFYPSDIAVEWESNGQPENNYKTTPPVLDSDGSFALVSKLTVDKSRWQQGNVFSCSVMHEALHNHYTQKSLSLSPGGGGGSGQVQLVESGGGLVQPGGSLRLSCSVSGIDLSSNPMIWVRQAPGKGLQYIGIIDTDGSTYYADWAKGRFTISKDSTTVYLQINSPRAEDTAVYYCARRLHGSSNGYYDDLWGQGTLVTVSSGGGGSGGGGSGGGGSGGGGSDGQMTQSPSSVSASVGDRVTITCQASQSIYSYLSWYQQKPGQRPKLLIYKASTLASGVPSRFSGSGSGTDFTLTISSVQPEDFATYYCQQGYTVTNVDKNTFGGGTKVEIK light: NPPTFSPALLVVTEGDNATFTCSFSNTSESFVLNWYRMSPSNQTDKLAAFPEDRSQPGQDARFRVTQLPNGRDFHMSVVRARRNDSGTYLCGAISLAPKAQIKESLRAELRVTEGGGGSGNFMLTQPHSVSESPGKTVTISCKRNTGNIGSNYVNWYQQHEGSSPTTIIYRNDKRPDGVSDRFSGSIDRSSKSASLTISNLKTEDEADYFCQSYSSGFIFGGGTKLTVLGQPKAAPSVTLFPPSSEELQANKATLVCLISDFYPGAVTVAWKADSSPVKAGVETTTPSKQSNNKYAASSYLSLTPEQWKSHRSYSCQVTHEGSTVEKTVAPTECS heavy 2: QVQLVESGGGLVQPGGSLRLSCSVSGIDLSSNPMIWVRQAPGKGLQYIGIIDTDGSTYYADWAKGRFTISKDSTTVYLQINSPRAEDTAVYYCARRLHGSSNGYYDDLWGQGTLVTVSSGGGGSGGGGSGGGGSGGGGSDGQMTQSPSSVSASVGDRVTITCQASQSIYSYLSWYQQKPGQRPKLLIYKASTLASGVPSRFSGSGSGTDFTLTISSVQPEDFATYYCQQGYTVTNVDKNTFGGGTKVEIKAAEPKSSDKTHTCPPCPAPEAAGGPSVFLFPPKPKDTLMISRTPEVTCVVVSVSHEDPEVKFNWYVDGVEVHNAKTKPREEQYNSTYRVVSVLTVLHQDWLNGKEYKCKVSNKALPAPIEKTISKAKGQPREPQVYVLPPSRDELTKNQVSLLCLVKGFYPSDIAVEWESNGQPENNYLTWPPVLDSDGSFFLYSKLTVDKSRWQQGNVFSCSVMHEALHNHYTQKSLSLSPG
3 | 18 | 95 | v38741 (other) heavy 1: EVQLVESGGGLVQPGGSLRLSCAASGVTFNYYGMSWIRQAPGKGLEWVASITSSGGRIYYPDSVKGRFTISRENTQKTLYLQMNSLRAEDTAVYYCTLDGRDGWVAYWGQGTLVTVSSASTKGPSVFPLAPSSKSTSGGTAALGCLVKDYFPEPVTVSWNSGALTSGVHTFPAVLQSSGLYSLSSVVTVPSSSLGTQTYICNVNHKPSNTKVDKKVEPKSCDKTHTCPPCPAPEAAGGPSVFLFPPKPKDTLMISRTPEVTCVVVSVSHEDPEVKFNWYVDGVEVHNAKTKPREEQYNSTYRVVSVLTVLHQDWLNGKEYKCKVSNKALPAPIEKTISKAKGQPREPQVYVYPPSRDELTKNQVSLTCLVKGFYPSDIAVEWESNGQPENNYKTTPPVLDSDGSFALVSKLTVDKSRWQQGNVFSCSVMHEALHNHYTQKSLSLSPGGGGGSGQVQLVESGGGLVQPGGSLRLSCSVSGIDLSSNPMIWVRQAPGKGLQYIGIIDTDGSTYYADWAKGRFTISKDSTTVYLQINSPRAEDTAVYYCARRLHGSSNGYYDDLWGQGTLVTVSSGGGGSGGGGSGGGGSGGGGSDGQMTQSPSSVSASVGDRVTITCQASQSIYSYLSWYQQKPGQRPKLLIYKASTLASGVPSRFSGSGSGTDFTLTISSVQPEDFATYYCQQGYTVTNVDKNTFGGGTKVEIK light: NPPTFSPALLVVTEGDNATFTCSFSNTSESFRLVWHRESPGYETDTLASFPEDRSTPLPDARFRVTQLPNGRDFHMSVVRARRNDSGTYVCGAIAFHPVIQIKESLRAELRVTEGGGGSGNFMLTQPHSVSESPGKTVTISCKRNTGNIGSNYVNWYQQHEGSSPTTIIYRNDKRPDGVSDRFSGSIDRSSKSASLTISNLKTEDEADYFCQSYSSGFIFGGGTKLTVLGQPKAAPSVTLFPPSSEELQANKATLVCLISDFYPGAVTVAWKADSSPVKAGVETTTPSKQSNNKYAASSYLSLTPEQWKSHRSYSCQVTHEGSTVEKTVAPTECS heavy 2: QVQLVESGGGLVQPGGSLRLSCSVSGIDLSSNPMIWVRQAPGKGLQYIGIIDTDGSTYYADWAKGRFTISKDSTTVYLQINSPRAEDTAVYYCARRLHGSSNGYYDDLWGQGTLVTVSSGGGGSGGGGSGGGGSGGGGSDGQMTQSPSSVSASVGDRVTITCQASQSIYSYLSWYQQKPGQRPKLLIYKASTLASGVPSRFSGSGSGTDFTLTISSVQPEDFATYYCQQGYTVTNVDKNTFGGGTKVEIKAAEPKSSDKTHTCPPCPAPEAAGGPSVFLFPPKPKDTLMISRTPEVTCVVVSVSHEDPEVKFNWYVDGVEVHNAKTKPREEQYNSTYRVVSVLTVLHQDWLNGKEYKCKVSNKALPAPIEKTISKAKGQPREPQVYVLPPSRDELTKNQVSLLCLVKGFYPSDIAVEWESNGQPENNYLTWPPVLDSDGSFFLYSKLTVDKSRWQQGNVFSCSVMHEALHNHYTQKSLSLSPG
4 | 120 | 220 | v38743 (other) heavy 1: EVQLVESGGGLVQPGGSLRLSCAASGVTFNYYGMSWIRQAPGKGLEWVASITSSGGRIYYPDSVKGRFTISRENTQKTLYLQMNSLRAEDTAVYYCTLDGRDGWVAYWGQGTLVTVSSASTKGPSVFPLAPSSKSTSGGTAALGCLVKDYFPEPVTVSWNSGALTSGVHTFPAVLQSSGLYSLSSVVTVPSSSLGTQTYICNVNHKPSNTKVDKKVEPKSCDKTHTCPPCPAPEAAGGPSVFLFPPKPKDTLMISRTPEVTCVVVSVSHEDPEVKFNWYVDGVEVHNAKTKPREEQYNSTYRVVSVLTVLHQDWLNGKEYKCKVSNKALPAPIEKTISKAKGQPREPQVYVYPPSRDELTKNQVSLTCLVKGFYPSDIAVEWESNGQPENNYKTTPPVLDSDGSFALVSKLTVDKSRWQQGNVFSCSVMHEALHNHYTQKSLSLSPGGGGGSGQVQLVESGGGLVQPGGSLRLSCSVSGIDLSSNPMIWVRQAPGKGLQYIGIIDTDGSTYYADWAKGRFTISKDSTTVYLQINSPRAEDTAVYYCARRLHGSSNGYYDDLWGQGTLVTVSSGGGGSGGGGSGGGGSGGGGSDGQMTQSPSSVSASVGDRVTITCQASQSIYSYLSWYQQKPGQRPKLLIYKASTLASGVPSRFSGSGSGTDFTLTISSVQPEDFATYYCQQGYTVTNVDKNTFGGGTKVEIK light: NPPTFSPALLVVTEGDNATFTCSFSNTSESFVLNWYRMSPSNQTDKLAAFPEDRSQPGQDARFRVTQLPNGRDFHMSVVRARRNDSGTYLCGAISLAPKLQIKESLRAELRVTEGGGGSGNFMLTQPHSVSESPGKTVTISCKRNTGNIGSNYVNWYQQHEGSSPTTIIYRNDKRPDGVSDRFSGSIDRSSKSASLTISNLKTEDEADYFCQSYSSGFIFGGGTKLTVLGQPKAAPSVTLFPPSSEELQANKATLVCLISDFYPGAVTVAWKADSSPVKAGVETTTPSKQSNNKYAASSYLSLTPEQWKSHRSYSCQVTHEGSTVEKTVAPTECS heavy 2: QVQLVESGGGLVQPGGSLRLSCSVSGIDLSSNPMIWVRQAPGKGLQYIGIIDTDGSTYYADWAKGRFTISKDSTTVYLQINSPRAEDTAVYYCARRLHGSSNGYYDDLWGQGTLVTVSSGGGGSGGGGSGGGGSGGGGSDGQMTQSPSSVSASVGDRVTITCQASQSIYSYLSWYQQKPGQRPKLLIYKASTLASGVPSRFSGSGSGTDFTLTISSVQPEDFATYYCQQGYTVTNVDKNTFGGGTKVEIKAAEPKSSDKTHTCPPCPAPEAAGGPSVFLFPPKPKDTLMISRTPEVTCVVVSVSHEDPEVKFNWYVDGVEVHNAKTKPREEQYNSTYRVVSVLTVLHQDWLNGKEYKCKVSNKALPAPIEKTISKAKGQPREPQVYVLPPSRDELTKNQVSLLCLVKGFYPSDIAVEWESNGQPENNYLTWPPVLDSDGSFFLYSKLTVDKSRWQQGNVFSCSVMHEALHNHYTQKSLSLSPG
